In assay [1] the test system is LAM nodule cells. Put plainly: MTT cell viability assay, LAM nodule cells. The format is cell-based. Particulars: intermediate layer, centre and outer nodule cells, 72 hrs. On the procedure: To determine the function of lamstatin, human primary lymphatic endothelial cells (HMVEC-LLy cells) were exposed to various concentrations of lamstatin and an MTT assay was performed. As a comparison, commercially available tumstatin was used. Specifically, to assess cell viability 4×10^3 HMVEC-LLy cells were seeded per well in 100 μl complete EBM-2 media (with bullet kit, Lonza) and incubated for 2 hrs at 37° C., 5% CO2. After this period lamstatin, tumstatin and respective vehicles (1 nM EDTA, pH 3.0) were prepared in complete EBM-2 as serial dilutions in a separate plate and added. Cells were grown for 24 hrs before MTT (1 mg/mL in PBS) was added. After 6 h of further incubation cells were lysed overnight with 10% SDS/0.01 M HCl and measured the following day in a plate reader at 570 nm.
The inventors isolated lung cells from a LAM patient, which cells originated from the LAM nodules. These cells were termed according to their location within the nodule, as intermediate layer in the nodule, centre cells and outer nodule cells. These cells were then treated with lamstatin or tumstatin and cell viability measured after 72 hrs. The MTT viability assay was performed as described above in Example 1.
(In general: Formazan colour is commonly taken as a measure of viable cells.)

In assay [2] the test system is HMVEC-LLy cells. Briefly: Migration towards a VEGF-D gradient (FluoroBlok transwell). The format is cell-based, human. Particulars: 24 hrs, n=1; VEGFD alone 42.000 RFU. On the procedure:
FluoroBlok BioCoat 24-well inserts (BD Bioscience) were seeded with 4×10^4 HMVEC-LLy cells in 750 μL DMEM with 0.1% BSA, 1% antibiotics and 25 mM HEPES and incubated for 1 hr. The bottom well was filled with 500 μL medium (as described above) with or without 10 ng/mL VEGF-D (R&D Systems) as well as various concentrations of lamstatin, tumstatin, CP17 or vehicle. Additionally, top wells were loaded with inhibitors to match the bottom well concentration. According to manufacturer's instructions cells were allowed to migrate for 24 hrs before bottom media was removed. Thereafter the underside of the transwell with the migrated cells was washed twice with HANKS buffer and placed in a 4 μg/mL calcein (HANKS) solution for 90 min at 37° C. Signal was read with a bottom read fluorescence microplate reader at 485/515 nm (excitation/emission).

The target of assay [3] is T1, integrin β3 (Homo sapiens, UniProt P05106).
T1 construct: endogenous in cells; host or cells: HMVEC-LLy (human primary lymphatic endothelial cells)
T1 sequence (P05106 27-788): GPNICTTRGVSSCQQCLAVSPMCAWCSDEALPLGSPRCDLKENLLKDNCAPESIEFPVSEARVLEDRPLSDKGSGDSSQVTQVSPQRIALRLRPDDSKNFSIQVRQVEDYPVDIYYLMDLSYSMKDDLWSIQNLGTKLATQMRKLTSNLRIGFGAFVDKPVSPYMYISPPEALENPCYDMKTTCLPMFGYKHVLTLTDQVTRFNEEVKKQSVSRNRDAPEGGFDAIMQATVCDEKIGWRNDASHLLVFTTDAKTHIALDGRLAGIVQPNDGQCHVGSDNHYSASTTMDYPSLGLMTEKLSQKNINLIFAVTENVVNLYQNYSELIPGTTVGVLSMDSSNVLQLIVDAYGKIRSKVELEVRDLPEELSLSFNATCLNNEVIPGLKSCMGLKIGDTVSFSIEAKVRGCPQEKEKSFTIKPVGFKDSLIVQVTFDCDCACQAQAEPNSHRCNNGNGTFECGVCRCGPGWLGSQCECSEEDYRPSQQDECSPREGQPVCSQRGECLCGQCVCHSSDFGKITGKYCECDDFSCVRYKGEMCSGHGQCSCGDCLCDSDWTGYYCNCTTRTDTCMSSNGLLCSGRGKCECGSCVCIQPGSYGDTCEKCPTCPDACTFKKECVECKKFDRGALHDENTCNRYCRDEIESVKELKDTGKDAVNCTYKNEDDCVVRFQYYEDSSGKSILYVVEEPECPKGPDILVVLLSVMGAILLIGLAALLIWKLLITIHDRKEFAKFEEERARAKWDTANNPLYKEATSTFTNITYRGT
T1 sequence (P06756 31-889 limits assumed, further chain): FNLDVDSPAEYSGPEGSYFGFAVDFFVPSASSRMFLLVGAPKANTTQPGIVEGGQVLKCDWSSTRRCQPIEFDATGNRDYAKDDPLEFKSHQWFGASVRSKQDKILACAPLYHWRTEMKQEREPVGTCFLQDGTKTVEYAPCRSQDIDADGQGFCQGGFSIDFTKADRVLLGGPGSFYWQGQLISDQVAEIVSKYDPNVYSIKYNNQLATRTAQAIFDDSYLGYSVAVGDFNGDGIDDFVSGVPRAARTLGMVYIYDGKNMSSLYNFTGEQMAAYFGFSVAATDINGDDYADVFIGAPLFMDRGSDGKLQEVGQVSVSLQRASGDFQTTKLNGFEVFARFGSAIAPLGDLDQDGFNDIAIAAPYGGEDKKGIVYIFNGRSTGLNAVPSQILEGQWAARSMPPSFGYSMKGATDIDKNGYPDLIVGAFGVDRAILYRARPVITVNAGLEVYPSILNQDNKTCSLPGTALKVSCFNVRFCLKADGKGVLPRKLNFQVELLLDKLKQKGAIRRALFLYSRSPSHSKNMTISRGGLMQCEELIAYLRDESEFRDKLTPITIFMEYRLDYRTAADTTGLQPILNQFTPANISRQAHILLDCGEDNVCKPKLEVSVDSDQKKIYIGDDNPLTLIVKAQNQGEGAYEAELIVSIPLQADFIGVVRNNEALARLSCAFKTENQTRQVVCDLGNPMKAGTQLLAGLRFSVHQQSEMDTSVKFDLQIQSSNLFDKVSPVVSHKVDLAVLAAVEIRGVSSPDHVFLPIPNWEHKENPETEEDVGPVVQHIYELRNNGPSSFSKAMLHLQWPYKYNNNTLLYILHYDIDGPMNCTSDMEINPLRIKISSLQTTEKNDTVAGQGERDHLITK
T1 sequence (P06756 891-1048 limits assumed, further chain): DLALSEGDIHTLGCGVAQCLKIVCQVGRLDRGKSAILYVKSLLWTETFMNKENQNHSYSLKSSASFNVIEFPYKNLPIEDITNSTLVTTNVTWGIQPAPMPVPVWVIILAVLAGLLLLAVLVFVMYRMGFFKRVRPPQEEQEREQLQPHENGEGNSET
Briefly: Integrin binding of HMVEC-LLy cells on antibody-coated plates. Particulars: lamstatin 10 μg/ml, CP17 5 μM, 1 h. The format is cell-based. Here is the method:
(§1) Antibodies for integrin α5 (MAB1956Z; MAB1953Z), integrin β1 (MAB2253Z) and integrin β3 (MAB1957Z) (all Millipore, USA) were coated to 96 well tissue culture plates (Nunc, USA) at a concentration of 10 μg/mL overnight at 4° C. in sterile coating buffer (50 mM Na2CO3, 50 mM NaHCO3, pH 9.6). Plates then were blocked with sterile 1% BSA/PBS for 1 h at 37° C. and washed twice with EBM-2 MV (Lonza, Basel, Switzerland). MMVEC-LLy cells were carefully removed from culture flasks with non-enzymatic detachment solution (Trevigen, Md., USA) and washed twice with EBM-2 (Lonza, Basel, Switzerland). Volume was adjusted to a cell concentration of 50,000 cells/100 μL and divided into aliquots for treatment with recombinant lamstatin (10 μg/ml), CP17 (5 μM) or vehicle (1 nM EDTA, pH 3.5) only. Cells were then transferred to the antibody-coated plates and incubated for 1 h at 37° C. Wells were then washed with HANKS twice to remove unbound cells and fixed with 4% paraformaldehyde (in PBS) for 15 min at room temperature. Wells thereafter were photographed with an Olypmus CAMEDIA C-4000 camera mounted to an Olympus CK2 microscope. Pictures were divided into 25 segments and cells of 5 center-near quadrants were counted and averaged. […] Using a similar approach, the inventors observed no expression of integrin α4 on the surface of HMVEC-LLy cells (data not shown).

Assay [4] has as its target T2, integrin α5 (Homo sapiens, UniProt P05556+P08648).
T2 construct: endogenous in cells; host or cells: HMVEC-LLy (human primary lymphatic endothelial cells)
Described as above. In kind it is cell-based. To be noted: lamstatin 10 μg/ml, CP17 5 μM, 1 h. On the procedure: as §1

The target in assay [5] is T3, integrin β1 (Homo sapiens, UniProt P05556+P08648).
T3 construct: endogenous in cells; host or cells: HMVEC-LLy (human primary lymphatic endothelial cells)
T3 sequence (P05556 21-798): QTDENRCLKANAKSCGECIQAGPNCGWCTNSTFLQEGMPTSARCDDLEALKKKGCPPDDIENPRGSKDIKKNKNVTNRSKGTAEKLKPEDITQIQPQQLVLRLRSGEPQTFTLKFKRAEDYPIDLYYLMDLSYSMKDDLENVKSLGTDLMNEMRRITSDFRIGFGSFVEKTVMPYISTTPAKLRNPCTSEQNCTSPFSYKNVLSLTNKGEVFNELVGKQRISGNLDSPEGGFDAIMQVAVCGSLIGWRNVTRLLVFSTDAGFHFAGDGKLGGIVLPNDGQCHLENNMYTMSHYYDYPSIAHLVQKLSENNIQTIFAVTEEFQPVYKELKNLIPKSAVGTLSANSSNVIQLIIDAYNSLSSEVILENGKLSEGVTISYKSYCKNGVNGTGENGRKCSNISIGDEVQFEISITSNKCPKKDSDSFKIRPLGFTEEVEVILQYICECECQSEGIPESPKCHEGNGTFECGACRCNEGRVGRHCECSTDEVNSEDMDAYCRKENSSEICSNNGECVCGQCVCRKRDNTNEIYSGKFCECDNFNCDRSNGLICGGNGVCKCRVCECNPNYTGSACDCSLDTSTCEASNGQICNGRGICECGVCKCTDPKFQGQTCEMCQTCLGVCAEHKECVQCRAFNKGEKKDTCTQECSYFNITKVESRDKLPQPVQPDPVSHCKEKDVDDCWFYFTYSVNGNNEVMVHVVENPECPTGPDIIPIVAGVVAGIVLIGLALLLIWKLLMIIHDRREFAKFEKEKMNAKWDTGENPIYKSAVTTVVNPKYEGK
T3 sequence (P08648 42-894 limits assumed): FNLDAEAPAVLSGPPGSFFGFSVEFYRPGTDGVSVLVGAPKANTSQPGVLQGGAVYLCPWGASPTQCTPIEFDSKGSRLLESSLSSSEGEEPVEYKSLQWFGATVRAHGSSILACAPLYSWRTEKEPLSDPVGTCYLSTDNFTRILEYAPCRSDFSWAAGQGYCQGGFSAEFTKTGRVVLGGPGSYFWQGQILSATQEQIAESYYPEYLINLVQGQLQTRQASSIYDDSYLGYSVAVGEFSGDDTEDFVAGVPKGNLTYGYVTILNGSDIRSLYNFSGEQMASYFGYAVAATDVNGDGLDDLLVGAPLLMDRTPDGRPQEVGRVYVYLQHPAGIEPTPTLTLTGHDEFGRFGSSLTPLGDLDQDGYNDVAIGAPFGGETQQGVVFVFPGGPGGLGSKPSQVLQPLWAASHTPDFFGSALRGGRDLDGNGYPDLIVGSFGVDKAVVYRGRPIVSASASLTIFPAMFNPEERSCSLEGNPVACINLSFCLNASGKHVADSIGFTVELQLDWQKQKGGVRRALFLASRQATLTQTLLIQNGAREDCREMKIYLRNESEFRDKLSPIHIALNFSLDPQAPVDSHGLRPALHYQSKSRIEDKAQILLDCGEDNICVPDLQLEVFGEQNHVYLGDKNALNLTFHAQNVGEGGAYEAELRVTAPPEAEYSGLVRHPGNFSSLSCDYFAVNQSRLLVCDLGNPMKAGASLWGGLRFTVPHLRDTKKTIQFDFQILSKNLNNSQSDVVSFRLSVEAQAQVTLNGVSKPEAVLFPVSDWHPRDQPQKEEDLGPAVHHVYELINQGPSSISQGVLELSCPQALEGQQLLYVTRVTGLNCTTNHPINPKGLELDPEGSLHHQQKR
T3 sequence (P08648 895-1049 limits assumed): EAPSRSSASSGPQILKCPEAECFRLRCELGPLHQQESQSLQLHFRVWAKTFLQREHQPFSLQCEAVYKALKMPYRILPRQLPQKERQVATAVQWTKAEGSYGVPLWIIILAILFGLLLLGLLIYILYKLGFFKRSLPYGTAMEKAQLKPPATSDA
The assay is described as above. The format is cell-based. Particulars: lamstatin 10 μg/ml, CP17 5 μM, 1 h. Here is the method: as §1

The test system of assay [6] is fibroblasts (3567). Put plainly: MTT cell viability assay, fibroblasts. To be noted: increasing concentrations, 72 hrs. The format is cell-based.
Assay [7] deals with T4, integrins α5 and β1 (Homo sapiens, UniProt P05556+P08648).
T4 construct: endogenous in cells; host or cells: HMVEC-LLy (human primary lymphatic endothelial cells)
Briefly: Integrins mediating binding of lymphatic endothelial cells (data not shown). The format is cell-based. To be noted: HMVEC-LLy in vitro, different from HUVECs.

The subject of assay [8] is lung adenocarcinoma cells (LNM35 AAV-GFP). Put plainly: Mouse ear tumour plug model of tumour-induced lymphangiogenesis. The format is in vivo. On the procedure:
A mouse ear tumour plug model was utilized in which green fluorescent protein (GFP)-tagged lung adenocarcinoma cells (LNM35 AAV-GFP) were injected between the two layers of skin of the ears of NOD/SCID mice. 1×10^6 tumour cells were embedded in […] growth factor free Matrigel® medium enriched with vehicle (1 nM EDTA, pH3.0) or lamstatin at either 10 μg/mL or 100 μg/mL. Mice were divided into three groups.
Group 1 (n=9): One ear of each mouse injected with tumour cells+10 μg/mL lamstatin; the other ear injected with tumour cells+vehicle control. Group 2 (n=9): One ear of each mouse injected with tumour cells+100 μg/mL lamstatin; the other ear injected with tumour cells+vehicle control. Group 3 (n=3): Each ear injected with Matrigel® only.
Injections were single shots such that at least 25 μL was injected. 12 days after injection were sacrificed by anesthetisation and cervical dislocation. Ears were removed for whole mount staining. Flaps of skin from each ear were carefully separated, fixed and stained for either the lymphatic endothelial cell specific marker LyVe-1 (rabbit polyclonal anti-LyVe-1 antibody detected using anti-rabbit Alexafluor 647) or the vascular endothelial cell specific marker PECAM (CD31 rat anti-mouse antibody clone MEC13.3 (Pharmingen), detected with […]). Tumour cells were visualised by detection of GFP expression. Images of representative regions of ears were obtained using a confocal microscope and LyVe-1 or PECAM staining was quantified.
Using the LyVe-1 whole mount stained mouse ear sections, the inventors further investigated the morphology of lymphatic vessel formation. Specifically confocal images were loaded into Image J software (www.sbweb.nih.gov/ij/), a 5×5 grid overlayed and vessels examined for branching and looping. The functionality of a lymphatic network is based on its maturity and in general it is accepted that a tumour induces a rather immature network formation. Reconnecting vessels (measured as loops) and increased branching (measured as branches) are signs of immature vessels induced by, for example, a tumour (see for example Shayan et al. Growth Factors 25, 417-425, 2007).
Branches were defined as two clearly distinguishable vessels that separate out without rejoining. Loops were defined as small, circular vessel structures in the same focal plane. Branches or loops were counted separately per image and mean values were calculated for each treatment group.

Where [9] appears, read: lamstatin 10 or 100 μg/mL, CP17 5 or 50 μA, vs vehicle.

T2 sequence (P08648 42-894 limits assumed): as the sequence (P08648 42-894 limits assumed) above
T2 sequence (P08648 895-1049 limits assumed): as the sequence (P08648 895-1049 limits assumed) above
T2 sequence (P05556 21-798): as the sequence (P05556 21-798) above

B1: lamstatin: NC1 domain of the α5 chain of collagen type IV; human amino acid sequence SEQ ID NO:1; recombinant (protein, listed as Homo sapiens)
chain: GFLITRHSQTTDAPQCPQGTLQVYEGFSLLYVQGNKRAHGQDLGTAGSCLRRFSTMPFMFCNINNVCNFASRNDYSYWLSTPEPMPMSMQPLKGQSIQPFISRCAVCEAPAVVIAVHSQTIQIPHCPQGWDSLWIGYSFMMHTSAGAEGSGQALASPGSCLEEFRSAPFIECHGRGTCNYYANSYSFWLATVDVSDMFSKPQSETLKAGDLRTRISRCQVCMKRT
With B1, in assay [1], the “reduction of cell viability (MTT)” value was “effective in reducing cell viability of all nodule cell types at both high (e.g. 10 μg/mL) and low (1.25-2.5 μg/mL) concentrations”. For the same molecule, in assay [2], the migration towards a VEGFD gradient was 10000 RFU. Moreover, the “cell binding in presence of monoclonal antibody against integrin β3” value in assay [3] was “no effect on binding”. The “cell binding in presence of monoclonal antibody against integrin α5” value in assay [4] is given as “significantly inhibited cell binding”. The “cell binding in presence of monoclonal antibody against integrin β1” value in assay [5] was “significantly inhibited cell binding”. Moreover, the “cell viability (MTT)” value in assay [6] is reported as “only lymphatic endothelial cells responded”. Moreover, the “predominant integrins that mediate the binding of lymphatic endothelial cells” value in assay [7] is “integrins α5 and β1”. The “lymphatic vessel formation around the tumour (visual inspection)” value in assay [8] (10 μg/mL) is “reduction in the number of lymphatic vessels and a dilation of lymphatic vessels”. Besides, the “PECAM staining in the vicinity of tumour cells” value in assay [8] (10 μg/mL or 100 μg/mL, 12 days) is recorded as “no obvious reduction”. Also, in assay [8] (100 μg/mL, compared to 10 μg/mL), the “lymphatic vessel formation around the tumour (visual inspection)” value was “further reduction in lymphatic vessel network density”. Besides, in assay [8] (10 and 100 μg/mL), the “development of blood vasculature around the tumour” value is on record as “no discernable effect”. In addition, in assay [8] (both 10 μg/mL and 100 μg/mL, whole mount ears, 12 days), the “reduction of mean intensity of LyVe-1 staining compared to vehicle only” value is given as “approximately 60%”. In assay [8] (setting [9]), the “number of branches of lymphatic vessels” value is on record as “significantly reduced” and the “number of loops of lymphatic vessels” value is on record as “significantly reduced”.

(Values after patent publication US20120190612A1, “METHODS OF TREATMENT” (CRC FOR ASTHMA AND AIRWAYS LTD., priority 2009, published 2012).)
